Laboratory results as given in patent US20110245153A1.

Columns and labels:
[1] = molecular target: staphylococcal enterotoxin B (SEB), Staphylococcus aureus superantigen peptide; assay: fusion: Aga2 (yeast display)
[2] = molecular target: toxic shock syndrome toxin-1 (TSST-1), Staphylococcus aureus superantigen peptide; assay: soluble, other

## EGIGYITK
[1]
  Kd: 5 nM

## wild type hVβ2.1
[2]
  Kd: 2300 nM
